What was measured:
Test in all cases: co-IP
E2F-1/S332-7A = E2F-1/S332-7A (UniProt Q01094 1-437, S332-7A | S332-7A)
E2F-1/S403A = E2F-1/S403A (UniProt Q01094 1-437, S403A)
E2F-1/S375A = E2F-1/S375A (UniProt Q01094 1-437, S375A)
E2F-1/Y411A = E2F-1/Y411A (UniProt Q01094 1-437, Y411A)

B1: pRB (natural protein, mouse (endogenous in ψ-CRE), UniProt P13405 1-921, looked up)
chain: MPPKAPRRAAAAEPPPPPPPPPREDDPAQDSGPEELPLARLEFEEIEEPEFIALCQKLKVPDHVRERAWLTWEKVSSVDGILEGYIQKKKELWGICIFIAAVDLDEMPFTFTELQKSIETSVYKFFDLLKEIDTSTKVDNAMSRLLKKYNVLCALYSKLERTCELIYLTQPSSALSTEINSMLVLKISWITFLLAKGEVLQMEDDLVISFQLMLCVVDYFIKFSPPALLREPYKTAAIPINGSPRTPRRGQNRSARIAKQLENDTRIIEVLCKEHECNIDEVKNVYFKNFIPFINSLGIVSSNGLPEVESLSKRYEEVYLKNKDLDARLFLDHDKTLQTDPIDSFETERTPRKNNPDEEANVVTPHTPVRTVMNTIQQLMVILNSASDQPSENLISYFNNCTVNPKENILKRVKDVGHIFKEKFANAVGQGCVDIGVQRYKLGVRLYYRVMESMLKSEEERLSIQNFSKLLNDNIFHMSLLACALEVVMATYSRSTLQHLDSGTDLSFPWILNVLNLKAFDFYKVIESFIKVEANLTREMIKHLERCEHRIMESLAWLSDSPLFDLIKQSKDGEGPDNLEPACPLSLPLQGNHTAADMYLSPLRSPKKRTSTTRVNSAANTETQAASAFHTQKPLKSTSLALFYKKVYRLAYLRLNTLCARLLSDHPELEHIIWTLFQHTLQNEYELMRDRHLDQIMMCSMYGICKVKNIDLKFKIIVTAYKDLPHAAQETFKRVLIREEEFDSIIVFYNSVFMQRLKTNILQYASTRPPTLSPIPHIPRSPYKFSSSPLRIPGGNIYISPLKSPYKISEGLPTPTKMTPRSRILVSIGESFGTSEKFQKINQMVCNSDRVLKRSAEGGNPPKPLKKLRFDIEGADEADGSKHLPAESKFQQKLAEMTSTRTRMQKQRMNESKDVSNKEEK
**Q.** Which “fold change of the pRB/E2F-1 co-IP ratio against E2F-1/wt” value (E2F-1/S332-7A) does the source give for B1 here?
**A.** ~3 fold (increase)

**Q.** And the “fold change of the pRB/E2F-1 co-IP ratio against E2F-1/wt” value (E2F-1/S403A)?
**A.** ~3 fold (increase)

**Q.** What about the “fold change of the pRB/E2F-1 co-IP ratio against E2F-1/wt” value (E2F-1/S375A) of the same binder?
**A.** ~2.5 fold (increase)

**Q.** What about the “fold change of the pRB/E2F-1 co-IP ratio against E2F-1/wt” value (E2F-1/Y411A) of the same binder?
**A.** ~4 fold (decrease)

Reference: paper PMC2899456 (International Journal of Biological Sciences, 2010)
